Tested on: MS2 coat protein
Assay: apparent KD of MS2 coat protein; designed switch direction (-1 OFF switch, 1 ON switch): 1; higher = weaker reporter binding
Procedure, shortened: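 SNAP-549-labelled MS2 coat protein was titrated, doubling from 0.7 or 1.5 nM to 3 µM, over designed RNA switches transcribed on Illumina chips by stalled E. coli RNA polymerase. Runs were done without input, with 200 uM small-molecule ligand, or with an oligonucleotide input. Apparent KD is the per-design median over clusters of curve-fitted normalised fluorescence.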

[1] = input ligand: microRNA oligo, concentration not stated
[2] = Eterna round: R95, input ligand: FMN 200 uM
[3] = Eterna round: R95, input ligand: microRNA oligo, concentration not stated
[4] = Eterna round: R95, input ligand: none

CUGAGAUGUCAAGGAUAUCACGUCGAUUAGACGUGAGAAGGUGAUCUGCACAUGAGGAUCACCCAUGUGUUACAUGGAAUUCAG [Brourd's SSNG1/1-A2 mod 12] (Eterna round: R96, puzzle: Same State NG 1)
apparent KD of MS2 coat protein (input ligand: FMN 200 uM): 567 nM | apparent KD of MS2 coat protein [1]: 278 nM | apparent KD of MS2 coat protein (input ligand: none): 889 nM

UCUAUUGUGGUAGGAUAUCUAGGAUAUGGGAAGAGCUAAGCUUGGAAGUCACUUCACCCAGAAGGAGAGAAGGACCAGAGACUU [pwkr ssNG2 2FMN + F9.7] (Eterna round: R96, puzzle: Same State NG 2)
apparent KD of MS2 coat protein (input ligand: FMN 200 uM): 1230 nM | apparent KD of MS2 coat protein [1]: 778 nM | apparent KD of MS2 coat protein (input ligand: none): 475 nM

ACGCCCUCAGUAGGAUAUGGGAAAGGAAGUGUACCAGAAGGACUGGUUGAACAUGAGGAUCACCCAUGUUCAACGACAGGGCAA [PowerStrip SSNG 1.20] (Eterna round: R96, puzzle: Same State NG 1)
apparent KD of MS2 coat protein (input ligand: FMN 200 uM): 18.6 nM | apparent KD of MS2 coat protein [1]: 13.9 nM | apparent KD of MS2 coat protein (input ligand: none): 18.6 nM

GGGAGAGACGGAGGAUAUGGAGGGAGAUAGAGACUAGAAGGUUGGACAUGAGAAUCGAACAUGAGGAUCACCCAUGUUGGGAGG [iteri-2] (Eterna round: R96, puzzle: Same State NG 1)
apparent KD of MS2 coat protein (input ligand: FMN 200 uM): 61.5 nM | apparent KD of MS2 coat protein [1]: 33.7 nM | apparent KD of MS2 coat protein (input ligand: none): 56.7 nM

AAAGCACAUGAGGAUCACCCAUGUGGAAAUAACACAGGAUAUCCGGCCGAAAAUACGGUGGGAGAAGGGUGACCUA [Inxetemama] (puzzle: Same State 1)
apparent KD of MS2 coat protein [2]: 302 nM | apparent KD of MS2 coat protein [3]: 60.4 nM | apparent KD of MS2 coat protein [4]: 86.7 nM

UGUUAUUAGACAGGAUAUUGAUUGUAAAGUUUUUACAUGAGGAUCACCCAUGUUGUUCAUUCGAACAAGAAGGGUCAAGUUUUU [JR_SSNG2_Sub018] (Eterna round: R96, puzzle: Same State NG 2)
apparent KD of MS2 coat protein (input ligand: FMN 200 uM): 153 nM | apparent KD of MS2 coat protein [1]: 35.9 nM | apparent KD of MS2 coat protein (input ligand: none): 137 nM

CUGAGCAGUCAAGGAUAUCACGUCGAUUAGACGUGAGAAGGUGAUUAAUACAUGAGGAUCACCCAUGUAAUACAUGAAGCUCAG [SSNG1/11-A2] (Eterna round: R96, puzzle: Same State NG 1)
apparent KD of MS2 coat protein (input ligand: FMN 200 uM): 13.8 nM | apparent KD of MS2 coat protein [1]: 38.4 nM | apparent KD of MS2 coat protein (input ligand: none): 41.9 nM

UUUAUAUUCAGAGGAUAUUGAUGUUGUAUUUUACAAGAAGGCUGAUUGUUUUGUAAUGUUAUUAAACAUGAGGAUCACCCAUGU [JR_SSNG1_Sub013] (Eterna round: R96, puzzle: Same State NG 1)
apparent KD of MS2 coat protein (input ligand: FMN 200 uM): 19.7 nM | apparent KD of MS2 coat protein [1]: 22.5 nM | apparent KD of MS2 coat protein (input ligand: none): 27.3 nM

UCGGGCGUACUUGCUGACAUGAGGAUCACCCAUGUGUUUGGGAAGGAUAUGGUUCCGUUUCGGUUCCAGAAGGUCCUGGGUGCU [salish99_SSNG3_r04_314] (Eterna round: R96, puzzle: Same State NG 3)
apparent KD of MS2 coat protein (input ligand: FMN 200 uM): 337 nM | apparent KD of MS2 coat protein [1]: 254 nM | apparent KD of MS2 coat protein (input ligand: none): 246 nM

AAUUAAUUAAUACAUGAGGAUCACCCAUGUAAUUAUUAGAUCUAGGAUAUCAGCUCGUUUAGAGCUGAGAAGGAGAUCACAUGU [SSNG3/18-B3] (Eterna round: R96, puzzle: Same State NG 3)
apparent KD of MS2 coat protein [1]: 15.1 nM

GGAGCCGGUACUGAGGAUAUUCAUAUUAAAACAUGAGGAUCACCCAUGUAGGCCAGAAGGCCUUGGGAGAAGGCAGACCAGCUCG [Atgexeedri] (Eterna round: R96, puzzle: Same State 2)
apparent KD of MS2 coat protein (input ligand: FMN 200 uM): 18 nM | apparent KD of MS2 coat protein [1]: 190 nM | apparent KD of MS2 coat protein (input ligand: none): 271 nM

GUGCAAAUCAUAGGAUAUGGGCGGGAAUGCCGUCCAGAAGGAUGAACAUGAGGAUCACCCAUGUCCAGCCGCAAAUACGCGGCC [Sodirien] (Eterna round: R96, puzzle: Same State NG 1)
apparent KD of MS2 coat protein (input ligand: FMN 200 uM): 93.8 nM | apparent KD of MS2 coat protein [1]: 95.1 nM | apparent KD of MS2 coat protein (input ligand: none): 192 nM

AAAAGAAACACAGGAUAUACCGCACUUAACGCGGUAGAAGGGUGGGACAUGAGGAUCACCCAUGUGGUCUGGGCGCCAGACCGC [Esratean] (Eterna round: R96, puzzle: Same State NG 1)
apparent KD of MS2 coat protein (input ligand: FMN 200 uM): 29.1 nM | apparent KD of MS2 coat protein [1]: 23.3 nM | apparent KD of MS2 coat protein (input ligand: none): 22 nM

UUACGUACGUAUGAGGAUAUCCAUAAUAAGACAUGAGGAUCACCCAUGUAAACAAAACAAUAAUGGGAGAAGGCAUACGUACGAA [Mat - Same state - Malcolm Mod - D135] (Eterna round: R96, puzzle: Same State 2)
apparent KD of MS2 coat protein [1]: 53 nM

GUGGUCAGACAUGAGGAUCACCCAUGUGGAAUAAAUAAGGAGAAGGAUAUUUAAUAUAGGAUAUAAAAGAAGGUCUGGUUGGUG (Eterna round: R96, puzzle: Same State NG 3)
apparent KD of MS2 coat protein (input ligand: FMN 200 uM): 99.4 nM | apparent KD of MS2 coat protein [1]: 55.6 nM | apparent KD of MS2 coat protein (input ligand: none): 92.5 nM

GGUCGAAACCACAUGAGGAUCACCCAUGUUCCGGAAACGGCGCAGGAUAUCUGUCCGAAAAGGUCAGAGAAGGGUGAAACGACC [Fiskers NG3ss - 79] (Eterna round: R96, puzzle: Same State NG 3)
apparent KD of MS2 coat protein (input ligand: FMN 200 uM): 546 nM | apparent KD of MS2 coat protein [1]: 699 nM | apparent KD of MS2 coat protein (input ligand: none): 944 nM

GUGGUCAGACAUGAGGAUCACCCAUGUGGAAUAAAUAACAGACAGGAUAUCGAAUAUAGGAUAUAUGAGAAGGGUCGAUUGGUG (Eterna round: R96, puzzle: Same State NG 3)
apparent KD of MS2 coat protein (input ligand: FMN 200 uM): 63.4 nM | apparent KD of MS2 coat protein [1]: 63 nM | apparent KD of MS2 coat protein (input ligand: none): 90.7 nM

GCGAUCUACCGGAAGGUAGAUCGGCUUGUACAUGAGGAUCACCCAUGUCUGUACAAGCUUUUUGCUCGUCUUAUGGG [salish99-hsa-208a-66] (Eterna round: R96, puzzle: Sensor for hsa-mir-208a)
apparent KD of MS2 coat protein (input ligand: FMN 200 uM): 1150 nM | apparent KD of MS2 coat protein [1]: 27.9 nM | apparent KD of MS2 coat protein (input ligand: none): 713 nM

UCUUGGUUUUUGCUCGUUUUUUGUGUUGAACAUGAGGAUCACCCAUGUAUUGUACGGUCCAAUUUAAUAAUAAUCCG [JMF 64] (puzzle: Sensor for hsa-mir-208a)
apparent KD of MS2 coat protein [2]: 28.8 nM | apparent KD of MS2 coat protein [3]: 21.9 nM | apparent KD of MS2 coat protein [4]: 30.6 nM

GUCAGCGAUUGAGGAUAUCACGUCGAAUAGACGUGAGAAGGCGAUCAUAACAUGAGGAUCACCCAUGUAUUACAUGAAGCUGAC [SSNG1/5-A1] (Eterna round: R96, puzzle: Same State NG 1)
apparent KD of MS2 coat protein (input ligand: FMN 200 uM): 15.2 nM | apparent KD of MS2 coat protein [1]: 22.4 nM | apparent KD of MS2 coat protein (input ligand: none): 29.1 nM

AUAACACCGGCAGGAUAUGGGAAAGGAAGUGUACCAGAAGGGCCGGAACGGCGAUGGACAUGAGGAUCACCCAUGUCUUAGCCU [PowerStrip SSNG 1.24] (Eterna round: R96, puzzle: Same State NG 1)
apparent KD of MS2 coat protein (input ligand: FMN 200 uM): 13.7 nM | apparent KD of MS2 coat protein [1]: 11.6 nM | apparent KD of MS2 coat protein (input ligand: none): 17.3 nM

CUACAGGCCAGAGGAUAUGGGAAAGGAAGUGUACCAGAAGGUUGGCCUCCUGAGUACAUGAGGAUCACCCAUGUAGAAAGGCGA [PowerStrip SSNG 1.6] (Eterna round: R96, puzzle: Same State NG 1)
apparent KD of MS2 coat protein (input ligand: FMN 200 uM): 143 nM | apparent KD of MS2 coat protein [1]: 41.6 nM | apparent KD of MS2 coat protein (input ligand: none): 79.9 nM

AACAAUUAACAUGAGGAUCACCCAUGUAUUACUUCGUGUUUUUGCUCGUCUUAUGUUAGGUUCGAUAGAGCUUAACA [Improved] (puzzle: Sensor for hsa-mir-208a version 2)
apparent KD of MS2 coat protein [2]: 42.4 nM | apparent KD of MS2 coat protein [3]: 12.6 nM | apparent KD of MS2 coat protein [4]: 44.9 nM

AACAGUCGGCGAGGAUAUGGACGUACGGACUAACCCGUGCAGCUCACAUGAGGAUCACCCAUGUUCUAGAAGGCGCCACUGAAA [Onesusatza] (Eterna round: R96, puzzle: Same State NG 2)
apparent KD of MS2 coat protein (input ligand: FMN 200 uM): 15.9 nM | apparent KD of MS2 coat protein [1]: 87.6 nM | apparent KD of MS2 coat protein (input ligand: none): 147 nM

GUGGUCAGACAUGAGGAUCACCCAUGUGGAAUAAAUAAGGGAGAGGAUAUAAAAUAUAGGAUAUAUUAGAAGGCUCGGUUGGUG (Eterna round: R96, puzzle: Same State NG 3)
apparent KD of MS2 coat protein (input ligand: FMN 200 uM): 95.7 nM | apparent KD of MS2 coat protein [1]: 82.7 nM | apparent KD of MS2 coat protein (input ligand: none): 85.4 nM

UUGAAGAAUAUAGGAUAUUGAAUACAUAUGUUUAACAUGAGGAUCACCCAUGUGGGUUGCGGUAUCGAGAAGGAUAAAUAAUAG [Mat - Same State NG 2 - JL mod - D13] (Eterna round: R96, puzzle: Same State NG 2)
apparent KD of MS2 coat protein (input ligand: FMN 200 uM): 196 nM | apparent KD of MS2 coat protein [1]: 122 nM | apparent KD of MS2 coat protein (input ligand: none): 190 nM

AAAAAACAUGAGGAUCACCCAUGUCUUUUGACAUGAGGAUAUGUACAGACUUCGGUCUGUACAGAAGGCAUGUAAA [SS1 - 1028] (Eterna round: R96, puzzle: Same State 1)
apparent KD of MS2 coat protein [1]: 336 nM

UUCACCUUAUUUUACAUGAGGAUCACCCAUGUUUUCCCUACGUAGGAUAUCGAUGCUUGAUUGUUCGAGAAGGACGAUGUAAGU [JR_SSND3_Sub055] (Eterna round: R96, puzzle: Same State NG 3)
apparent KD of MS2 coat protein (input ligand: FMN 200 uM): 33.4 nM | apparent KD of MS2 coat protein [1]: 21.7 nM | apparent KD of MS2 coat protein (input ligand: none): 33.3 nM

GGACGAGACGCAGGAUAUGCGAAGAAGAAGGAAGCAGAAGGGCGUGUGGGACGACAUGAGGAUCACCCAUGUUCUCUGCGAGGA [ssng1 b] (Eterna round: R96, puzzle: Same State NG 1)
apparent KD of MS2 coat protein (input ligand: FMN 200 uM): 363 nM | apparent KD of MS2 coat protein [1]: 116 nM | apparent KD of MS2 coat protein (input ligand: none): 331 nM

AUUAUUAAUGCAGGAUAUGAUUAACAUGAGGAUCACCCAUGUGGUGUUGUGAGUAAGGAGAGUGAUCAGAAGGGCAUAUUUUUU [JMF's solution 9] (Eterna round: R96, puzzle: Same State NG 2)
apparent KD of MS2 coat protein (input ligand: FMN 200 uM): 668 nM | apparent KD of MS2 coat protein [1]: 407 nM | apparent KD of MS2 coat protein (input ligand: none): 625 nM

GUGAAGAAUUAAGGAUAUUGAAUACAUAUGUUUAACAUGAGGAUCACCCAUGUGGGUUGCGGUAUCGAGAAGGUAAAUUACUGG [salish99_SSNG2_r04_032] (Eterna round: R96, puzzle: Same State NG 2)
apparent KD of MS2 coat protein [1]: 81.7 nM
